# B1: RSPH3 (parent)
# chain: MTVKPAKAASLARNLAKRRRTYLG
# Variants of: B1
# Assay: protein stability index of a GFP-peptide fusion (GPS, HEK-293T) (PSI 1-6); higher = more stable
# Conditions: c terminus: a fixed tail appended
# 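Further: lentivirally expressed fusions sorted by FACS into six bins by GFP to DsRed ratio, PSI derived from sequencing read proportions per bin multiplied by bin number.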
row,Variant,protein stability index
1,MTVKPATAASLARNLAKRRRTYLG [K7T],3.06
2,MTVKPAAAASLARNLAKRRRTYLG [K7A],3.46
3,MTVKPAMAASLARNLAKRRRTYLG [K7M],2.93
4,MTVKPAEAASLARNLAKRRRTYLG [K7E],3.59
5,MTVKPARAASLARNLAKRRRTYLG [K7R],2.96
6,MTVKPAPAASLARNLAKRRRTYLG [K7P],3.18
7,MTEKPAKAASLARNLAKRRRTYLG [V3E],3.22
8,MTTKPAKAASLARNLAKRRRTYLG [V3T],3.5
9,MTLKPAKAASLARNLAKRRRTYLG [V3L],2.75
10,MTAKPAKAASLARNLAKRRRTYLG [V3A],2.85
11,MTSKPAKAASLARNLAKRRRTYLG [V3S],2.62
12,MTVKPAKAASLARNLKKRRRTYLG [A16K],3.44
13,MTVKPAKAASLARNLMKRRRTYLG [A16M],2.57
14,ETVKPAKAASLARNLAKRRRTYLG [M1E],2.46
15,DTVKPAKAASLARNLAKRRRTYLG [M1D],2.85
16,ATVKPAKAASLARNLAKRRRTYLG [M1A],3.34
17,CTVKPAKAASLARNLAKRRRTYLG [M1C],2.71
18,MTVKPMKAASLARNLAKRRRTYLG [A6M],2.27
19,MTVKPSKAASLARNLAKRRRTYLG [A6S],3
20,MTVKPNKAASLARNLAKRRRTYLG [A6N],2.88
21,MTVKPVKAASLARNLAKRRRTYLG [A6V],2.89
22,MTVKPDKAASLARNLAKRRRTYLG [A6D],1.79
23,MTVKPTKAASLARNLAKRRRTYLG [A6T],2.99
24,MTVKPRKAASLARNLAKRRRTYLG [A6R],2.19

row,Variant,protein stability index
1,MTVKPHKAASLARNLAKRRRTYLG [A6H],3.38
2,MTVKPWKAASLARNLAKRRRTYLG [A6W],1.91
3,MTVKPCKAASLARNLAKRRRTYLG [A6C],2.72
4,MTVKPIKAASLARNLAKRRRTYLG [A6I],2.43
5,MTVKPAKAASLARNLAKRRREYLG [T21E],3.47
6,MTVKPAKAASLARNLAKRRRPYLG [T21P],2.92
7,MTVKPAKAASLARNLAKRRRMYLG [T21M],2.7
8,MTVKPAKAASLARNLAKRRRQYLG [T21Q],3.21
9,MTVKPAKAASLARNLAKRRRFYLG [T21F],1.93
10,MTVKPAKAASLARNLAKRRRVYLG [T21V],2.83
11,MTVKPAKAASLARNLAKRRRCYLG [T21C],2.73
12,MTVKPAKAASLARNLAKRRRHYLG [T21H],2.79
13,MTVKPAKAASLARNLAKRRRKYLG [T21K],3.9
14,MTVKPAKAASLARNLAKRRRGYLG [T21G],2.83
15,MTVDPAKAASLARNLAKRRRTYLG [K4D],2.97
16,MTVYPAKAASLARNLAKRRRTYLG [K4Y],2.58
17,MTVPPAKAASLARNLAKRRRTYLG [K4P],2.94
18,MTVSPAKAASLARNLAKRRRTYLG [K4S],3.36
19,MTVHPAKAASLARNLAKRRRTYLG [K4H],3.7
20,MTVCPAKAASLARNLAKRRRTYLG [K4C],2.8
21,MTVMPAKAASLARNLAKRRRTYLG [K4M],3.46
22,MTVKPAKAASLARNLASRRRTYLG [K17S],2.91
23,MTVKPAKAASLARNLAGRRRTYLG [K17G],3.5
24,MTVKPAKAASLARNLAKIRRTYLG [R18I],2.63

row,Variant,protein stability index
1,MTVKPAKAASLARNLAKCRRTYLG [R18C],2.62
2,MTVKPAKAASLARNLAKSRRTYLG [R18S],2.96
3,MTVKPAKAASLARNLAKKRRTYLG [R18K],2.55
4,MTVKPAKAASLARNLAKQRRTYLG [R18Q],2.52
5,MTVKPAKAASLLRNLAKRRRTYLG [A12L],1.34
6,MTVKPAKAASLDRNLAKRRRTYLG [A12D],3.94
7,MTVKPAKAASLFRNLAKRRRTYLG [A12F],1.94
8,MTVKPAKAASLVRNLAKRRRTYLG [A12V],2.16
9,MTVKPAKAASLIRNLAKRRRTYLG [A12I],2.69
10,MTVKPAKAASLNRNLAKRRRTYLG [A12N],2.49
11,MTVKPAKAASLHRNLAKRRRTYLG [A12H],2.17
12,MTVKPAKAASLPRNLAKRRRTYLG [A12P],2.87
13,MTVKPAKAASLKRNLAKRRRTYLG [A12K],3.22
14,MTVKPAKAASLYRNLAKRRRTYLG [A12Y],2.19
15,MTVKPAKAASLQRNLAKRRRTYLG [A12Q],3.11
16,MTVKPAKAASLMRNLAKRRRTYLG [A12M],2.22
17,MCVKPAKAASLARNLAKRRRTYLG [T2C],2.16
18,MGVKPAKAASLARNLAKRRRTYLG [T2G],3.28
19,MEVKPAKAASLARNLAKRRRTYLG [T2E],2.98
20,MYVKPAKAASLARNLAKRRRTYLG [T2Y],2.36
21,MSVKPAKAASLARNLAKRRRTYLG [T2S],2.96
22,MAVKPAKAASLARNLAKRRRTYLG [T2A],2.69
23,MLVKPAKAASLARNLAKRRRTYLG [T2L],2.17
24,MRVKPAKAASLARNLAKRRRTYLG [T2R],2.74

row,Variant,protein stability index
1,MMVKPAKAASLARNLAKRRRTYLG [T2M],2.34
2,MTVKPAKGASLARNLAKRRRTYLG [A8G],2.4
3,MTVKPAKWASLARNLAKRRRTYLG [A8W],2.46
4,MTVKPAKMASLARNLAKRRRTYLG [A8M],2.62
5,MTVKPAKPASLARNLAKRRRTYLG [A8P],2.04
6,MTVKPAKIASLARNLAKRRRTYLG [A8I],2.17
7,MTVKPAKAASLARNLAKRRRTYLY [G24Y],2.42
8,MTVKPAKAASLARNLAKRRRTYLL [G24L],2.3
9,MTVKPAKAASLARNLAKRRRTYLW [G24W],1.63
10,MTVKPAKAASLARNLAKRRRTYLA [G24A],3.33
11,MTVKPAKAASLARNLAKRRRTYLF [G24F],1.97
12,MTVKPAKAASLARNLAKRRRTYLH [G24H],2.7
13,MTVKPAKAASLARNLAKRRRTYLN [G24N],3.18
14,MTVKPAKAASLARNLAKRRRTYLM [G24M],2.38
15,MTVKPAKAASLARNLAKRRRTYLQ [G24Q],2.94
16,MTVKPAKAASLARNLAKRRRTYLR [G24R],3.46
17,MTVKPAKAASLAVNLAKRRRTYLG [R13V],2.56
18,MTVKPAKAASLAANLAKRRRTYLG [R13A],3.26
19,MTVKPAKAASLASNLAKRRRTYLG [R13S],2.8
20,MTVKPAKAASLAFNLAKRRRTYLG [R13F],2.29
21,MTVKPAKAASLAKNLAKRRRTYLG [R13K],3.08
22,MTVKPAKAASLAQNLAKRRRTYLG [R13Q],3.48

# Reference: the supplement of paper PMC10567573
